Data reported in PMC10786891, “Massively parallel profiling of RNA-targeting CRISPR-Cas13d”.
Changes are numbered by the printed parent chain. Names and notes keep the numbering of the source.

T1: EsCas13d, nuclease-dead (Eubacterium siraeum, UniProt B0MS50, R295A;H300A;R849A;H854A)
T1 sequence: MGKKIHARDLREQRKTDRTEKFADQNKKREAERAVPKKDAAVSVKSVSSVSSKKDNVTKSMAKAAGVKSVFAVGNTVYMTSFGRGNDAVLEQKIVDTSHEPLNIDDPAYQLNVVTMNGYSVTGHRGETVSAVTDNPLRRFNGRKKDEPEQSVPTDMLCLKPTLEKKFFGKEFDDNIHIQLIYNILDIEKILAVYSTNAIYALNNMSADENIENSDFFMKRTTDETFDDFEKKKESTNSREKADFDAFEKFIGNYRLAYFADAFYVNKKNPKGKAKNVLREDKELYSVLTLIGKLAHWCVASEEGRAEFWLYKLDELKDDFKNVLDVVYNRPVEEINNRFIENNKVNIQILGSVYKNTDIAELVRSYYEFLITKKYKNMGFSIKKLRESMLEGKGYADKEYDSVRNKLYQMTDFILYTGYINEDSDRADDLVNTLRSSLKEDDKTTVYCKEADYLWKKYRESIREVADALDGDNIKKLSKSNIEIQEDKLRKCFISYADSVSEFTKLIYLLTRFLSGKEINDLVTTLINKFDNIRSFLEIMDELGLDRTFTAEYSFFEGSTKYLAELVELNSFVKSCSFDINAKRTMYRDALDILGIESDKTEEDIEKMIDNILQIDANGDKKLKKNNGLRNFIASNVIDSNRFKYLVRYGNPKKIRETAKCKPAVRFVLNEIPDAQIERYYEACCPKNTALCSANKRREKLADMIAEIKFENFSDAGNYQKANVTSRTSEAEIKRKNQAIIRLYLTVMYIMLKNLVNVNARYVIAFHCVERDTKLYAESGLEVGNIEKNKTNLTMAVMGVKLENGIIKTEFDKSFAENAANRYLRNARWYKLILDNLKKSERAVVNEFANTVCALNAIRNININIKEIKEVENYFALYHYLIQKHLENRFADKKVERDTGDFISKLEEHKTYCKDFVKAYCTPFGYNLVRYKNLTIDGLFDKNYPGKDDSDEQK

B1: target 1 A1G,U8A (mixed)
RNA 1: CACCCGUGCAAAAAUGCAGGGGUCUAAAACUGAGCGGAUAACCUCUCUAUGG
RNA 2: GGGAAUGGAUCCACAUCUACGAAUUCGUACCAUAGAGAGGUUAACCGCUCGCCGAGAUCGGAAGAGCACACGU
B2: target 1 U3C,U8G (mixed)
RNA 1: B1 RNA 1
RNA 2: B1 RNA 2 with A44G, U49C, G51A
B3: target 1 A1C,U8A (mixed)
RNA 1: B1 RNA 1
RNA 2: B1 RNA 2 with G51C
B4: target 1 insU 3' of 15,insG 3' of 7 (mixed)
RNA 1: B1 RNA 1
RNA 2: GGGAAUGGAUCCACAUCUACGAAUUCGUACCAUAGAGUAGGUUAUCGCGCUCACCGAGAUCGGAAGAGCACACGU
B5: target 1 C7U,U11C (mixed)
RNA 1: B1 RNA 1
RNA 2: B1 RNA 2 with U41C, A44U, C45U, G51A
B6: target 1 insC 3' of 19,insU 3' of 15 (mixed)
RNA 1: B1 RNA 1
RNA 2: GGGAAUGGAUCCACAUCUACGAAUUCGUACCAUCAGAGUAGGUUAUCCGCUCACCGAGAUCGGAAGAGCACACGU
B7: target 1 U8A (mixed)
RNA 1: B1 RNA 1
RNA 2: B1 RNA 2 with G51A
B8: target 1 U8C,A20U (mixed)
RNA 1: B1 RNA 1
RNA 2: B1 RNA 2 with A32U, A44C, G51A
B9: target 1 insA 3' of 15,insG 3' of 11 (mixed)
RNA 1: B1 RNA 1
RNA 2: B4 RNA 2 with U38A, U43G, A44U, U45A, C46U, G47C
B10: target 1 G12U,C21U (mixed)
RNA 1: B1 RNA 1
RNA 2: B1 RNA 2 with C31U, G40U, A44U, G51A
B11: target 1 insG 3' of 19,insG 3' of 9 (mixed)
RNA 1: B1 RNA 1
RNA 2: B6 RNA 2 with C34G, U39A, A40G, G42U, U44A, A45G
B12: target 1 insC 3' of 17,insG 3' of 1 (mixed)
RNA 1: B1 RNA 1
RNA 2: GGGAAUGGAUCCACAUCUACGAAUUCGUACCAUAGCAGAGGUUAUCCGCUCAGCCGAGAUCGGAAGAGCACACGU
B13: target 1 U3C,G5A (mixed)
RNA 1: B1 RNA 1
RNA 2: B1 RNA 2 with A44U, G47A, U49C, G51A
B14: target 1 U3A,C7A (mixed)
RNA 1: B1 RNA 1
RNA 2: B1 RNA 2 with A44U, C45A, U49A, G51A
B15: target 1 G15C,A16G (mixed)
RNA 1: B1 RNA 1
RNA 2: B1 RNA 2 with A36G, G37C, A44U, G51A
B16: target 3 G3U,A5U (mixed)
RNA 1: CACCCGUGCAAAAUUGCAGGGGUCUAAAACGACCUGAAUAUUUCAGAUCAAA
RNA 2: GGGAAUGGAUCCACAUCUACGAAUUCGUUUUUGAUCUGAAAUAUUCUGUUCUGCAGAUCGGAAGAGCACACGU
B17: target 3 insA 3' of 22,insC 3' of 22 (mixed)
RNA 1: B16 RNA 1
RNA 2: GGGAAUGGAUCCACAUCUACGAAUUCGUUUACUUGAUCUGAAAUAUUCAGGUCUGCAGAUCGGAAGAGCACACGU
B18: target 3 insA 3' of 4,insC 3' of 4 (mixed)
RNA 1: B16 RNA 1
RNA 2: GGGAAUGGAUCCACAUCUACGAAUUCGUUUUUGAUCUGAAAUAUUCAGACGUCUGCAGAUCGGAAGAGCACACGU
B19: target 3 insC 3' of 8,insA 3' of 7 (mixed)
RNA 1: B16 RNA 1
RNA 2: B18 RNA 2 with U45C, C46U, G48C, C50G
B20: target 3 insG 3' of 22,insG 3' of 6 (mixed)
RNA 1: B16 RNA 1
RNA 2: GGGAAUGGAUCCACAUCUACGAAUUCGUUUGUUGAUCUGAAAUAUUCGAGGUCUGCAGAUCGGAAGAGCACACGU
B21: target 3 insG 3' of 7,insC 3' of 4 (mixed)
RNA 1: B16 RNA 1
RNA 2: B18 RNA 2 with C46G, A47C, G48A, A49G
B22: target 3 insG 3' of 5,insU 3' of 5 (mixed)
RNA 1: B16 RNA 1
RNA 2: B18 RNA 2 with A49U, C50G
B23: target 3 insG 3' of 6,insC 3' of 4 (mixed)
RNA 1: B16 RNA 1
RNA 2: B18 RNA 2 with A47G, G48A, A49G
B24: target 3 insA 3' of 10,insU 3' of 5 (mixed)
RNA 1: B16 RNA 1
RNA 2: B18 RNA 2 with U44A, C46U, A47C, G48A, A49U, C50G
B25: target 3 insU 3' of 9,insC 3' of 7 (mixed)
RNA 1: B16 RNA 1
RNA 2: B18 RNA 2 with C46U, A47C, G48C, C50G
B26: target 3 insG 3' of 22,insU 3' of 22 (mixed)
RNA 1: B16 RNA 1
RNA 2: B17 RNA 2 with A31G, C32U
B27: target 3 insG 3' of 8,insU 3' of 6 (mixed)
RNA 1: B16 RNA 1
RNA 2: B18 RNA 2 with U45G, C46U, A47C, G48U, C50G
B28: target 3 G4C,U8G (mixed)
RNA 1: B16 RNA 1
RNA 2: B16 RNA 2 with U44G, U47A, G48C, U49G
B29: target 3 insC 3' of 21,insG 3' of 6 (mixed)
RNA 1: B16 RNA 1
RNA 2: B20 RNA 2 with G31U, U32C
B30: target 3 insA 3' of 10,insG 3' of 2 (mixed)
RNA 1: B16 RNA 1
RNA 2: B18 RNA 2 with U44A, C46U, A47C, G48A, A49G, C50G, G51U, U52G
B31: target 3 C6G,A11C (mixed)
RNA 1: B16 RNA 1
RNA 2: B16 RNA 2 with A41C, C46G, U47A, U49G
B32: target 3 U8G,U22C (mixed)
RNA 1: B16 RNA 1
RNA 2: B16 RNA 2 with U30C, U44G, U47A, U49G
B33: target 3 insA 3' of 6,insA 3' of 4 (mixed)
RNA 1: B16 RNA 1
RNA 2: B18 RNA 2 with G48A, A49G, C50A

Biological target: T1, EsCas13d, nuclease-dead
Test: crRNA (strand 1, pre-loaded); Mg2+; 40 mM Tris-HCl pH 7.5, 150 mM NaCl, 6 mM MgCl2, 1 mM DTT, 0.1% Tween-20, 0.2 mg/ml BSA; 25 C; 10 min per concentration, then washed
Settings: tags: His6-TwinStrep-SUMO cleaved; N-terminal SNAP kept (SNAP-Surface 488); label: 3' end held by stalled T7 RNA polymerase

Row | Binder | Kd
1 | B1 | 31.7 ± 1.8 nM
2 | B2 | 18.6 ± 1.2 nM
3 | B3 | 25.5 ± 1.8 nM
4 | B4 | 10.7 ± 0.4 nM
5 | B5 | 8.7 ± 0.4 nM
6 | B6 | 62 ± 26 nM
7 | B7 | 22.2 ± 1.7 nM
8 | B8 | 80 ± 8 nM
9 | B9 | 24 ± 4 nM
10 | B10 | 7.4 ± 0.5 nM
11 | B11 | 44 ± 5 nM
12 | B12 | 44 ± 16 nM
13 | B13 | 67 ± 22 nM
14 | B14 | 7 ± 0.4 nM
15 | B15 | 71 ± 11 nM
16 | B16 | 32.5 ± 4.5 nM
17 | B17 | 15 ± 1.4 nM

Row | Binder | Kd
18 | B18 | ~110 nM
19 | B19 | 40.5 ± 4 nM
20 | B20 | 90 ± 41.5 nM
21 | B21 | 64 ± 8 nM
22 | B22 | 18.1 ± 2.95 nM
23 | B23 | 13.2 ± 1.5 nM
24 | B24 | 58.5 ± 6.5 nM
25 | B25 | 100 ± 21 nM
26 | B26 | 28 ± 4.5 nM
27 | B27 | 28.3 ± 3.3 nM
28 | B28 | 69 ± 8 nM
29 | B29 | 100 ± 40 nM
30 | B30 | 42 ± 6.5 nM
31 | B31 | 30.1 ± 4.65 nM
32 | B32 | 90 ± 40 nM
33 | B33 | 10.8 ± 0.9 nM
